IntAct's records for PubMed 20153263

B1: Protein AF-9 (Homo sapiens), P42568 (parent)
chain: MASSCAVQVKLELGHRAQVRKKPTVEGFTHDWMVFVRGPEHSNIQHFVEKVVFHLHESFPRPKRVCKDPPYKVEESGYAGFILPIEVYFKNKEEPRKVRFDYDLFLHLEGHPPVNHLRCEKLTFNNPTEDFRRKLLKAGGDPNRSIHTSSSSSSSSSSSSSSSSSSSSSSSSSSSSSSSSSSSSSSSSSSTSFSKPHKLMKEHKEKPSKDSREHKSAFKEPSRDHNKSSKESSKKPKENKPLKEEKIVPKMAFKEPKPMSKEPKPDSNLLTITSGQDKKAPSKRPPISDSEELSAKKRKKSSSEALFKSFSSAPPLILTCSADKKQIKDKSHVKMGKVKIESETSEKKKSTLPPFDDIVDPNDSDVEENISSKSDSEQPSPASSSSSSSSSFTPSQTRQQGPLRSIMKDLHSDDNEEESDEVEDNDNDSEMERPVNRGGSRSRRVSLSDGSDSESSSASSPLHHEPPPPLLKTNNNQILEVKSPIKQSKSDKQIKNGECDKAYLDELVELHRRLMTLRERHILQQIVNLIEETGHFHITNTTFDFDLCSLDKTTVRKLQSYLETSGTS
B2: Protein ENL (Homo sapiens), Q03111 (parent)
chain: MDNQCTVQVRLELGHRAQLRKKPTTEGFTHDWMVFVRGPEQCDIQHFVEKVVFWLHDSFPKPRRVCKEPPYKVEESGYAGFIMPIEVHFKNKEEPRKVCFTYDLFLNLEGNPPVNHLRCEKLTFNNPTTEFRYKLLRAGGVMVMPEGADTVSRPSPDYPMLPTIPLSAFSDPKKTKPSHGSKDANKESSKTSKPHKVTKEHRERPRKDSESKSSSKELEREQAKSSKDTSRKLGEGRLPKEEKAPPPKAAFKEPKMALKETKLESTSPKGGPPPPPPPPPRASSKRPATADSPKPSAKKQKKSSSKGSRSAPGTSPRTSSSSSFSDKKPAKDKSSTRGEKVKAESEPREAKKALEVEESNSEDEASFKSESAQSSPSNSSSSSDSSSDSDFEPSQNHSQGPLRSMVEDLQSEESDEDDSSSGEEAAGKTNPGRDSRLSFSDSESDNSADSSLPSREPPPPQKPPPPNSKVSGRRSPESCSKPEKILKKGTYDKAYTDELVELHRRLMALRERNVLQQIVNLIEETGHFNVTNTTFDFDLFSLDETTVRKLQSCLEAVAT
B3: Protein AF-9 (Homo sapiens), P42568 (parent)
chain: B1 chain
partner: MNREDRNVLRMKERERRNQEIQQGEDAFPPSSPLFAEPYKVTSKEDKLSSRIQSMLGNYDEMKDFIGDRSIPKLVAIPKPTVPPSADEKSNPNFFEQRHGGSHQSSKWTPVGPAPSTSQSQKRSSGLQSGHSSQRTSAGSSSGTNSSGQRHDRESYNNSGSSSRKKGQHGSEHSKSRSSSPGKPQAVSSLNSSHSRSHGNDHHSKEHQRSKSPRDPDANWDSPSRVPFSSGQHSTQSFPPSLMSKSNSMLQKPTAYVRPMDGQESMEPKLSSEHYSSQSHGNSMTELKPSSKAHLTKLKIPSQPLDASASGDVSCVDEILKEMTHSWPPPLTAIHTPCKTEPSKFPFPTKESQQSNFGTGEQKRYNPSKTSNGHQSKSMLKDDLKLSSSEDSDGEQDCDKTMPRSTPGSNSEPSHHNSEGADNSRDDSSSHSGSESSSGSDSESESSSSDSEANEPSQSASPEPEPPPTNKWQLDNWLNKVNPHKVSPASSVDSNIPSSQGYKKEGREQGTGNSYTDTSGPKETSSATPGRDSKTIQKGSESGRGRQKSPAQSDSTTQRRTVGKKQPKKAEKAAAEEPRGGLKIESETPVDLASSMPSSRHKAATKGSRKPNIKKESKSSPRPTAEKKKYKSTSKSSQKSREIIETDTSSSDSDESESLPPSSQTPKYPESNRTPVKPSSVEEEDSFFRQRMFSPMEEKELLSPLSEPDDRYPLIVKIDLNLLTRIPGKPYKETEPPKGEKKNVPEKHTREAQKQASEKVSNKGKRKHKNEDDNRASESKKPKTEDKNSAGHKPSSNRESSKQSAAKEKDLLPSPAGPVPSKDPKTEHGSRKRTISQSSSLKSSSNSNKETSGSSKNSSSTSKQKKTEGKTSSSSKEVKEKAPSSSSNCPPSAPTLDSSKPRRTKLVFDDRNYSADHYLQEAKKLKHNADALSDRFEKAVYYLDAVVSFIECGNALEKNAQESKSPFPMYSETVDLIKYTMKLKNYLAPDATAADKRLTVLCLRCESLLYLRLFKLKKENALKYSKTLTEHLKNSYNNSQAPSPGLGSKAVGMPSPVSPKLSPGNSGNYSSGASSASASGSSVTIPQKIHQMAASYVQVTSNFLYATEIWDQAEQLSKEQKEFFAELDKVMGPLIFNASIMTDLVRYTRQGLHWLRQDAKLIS
B4: Protein ENL (Homo sapiens), Q03111 (parent)
chain: B2 chain
partner: B3 partner

Variants of: B1
Details: with dot1l_human DOT1L

Row | Variant | effect of a mutation on the interaction
1 | L558E | decreasing interaction

Variants of: B2
Details: with dot1l_human DOT1L

Row | Variant | effect of a mutation on the interaction
2 | L550E | decreasing interaction

Variants of: B3
Details: with aff4_human AFF4, Q9UHB7

Row | Variant | effect of a mutation on the interaction
3 | L558E | decreasing interaction

Variants of: B4
Details: with aff4_human AFF4, Q9UHB7

Row | Variant | effect of a mutation on the interaction
4 | L550E | disrupting interaction
